From patent publication US20230265151A1, “GIP/GLP1 CO-AGONIST COMPOUNDS” (priority 2020, published 2023)
Where a chain is given by its changes, count along the chain named.

T1: human GIP receptor (human, UniProt P48546 22-466)
T1 construct: whole, on cells; also called hGIPR; human glucose-dependent insulinotropic polypeptide receptor
T1 sequence (looked up): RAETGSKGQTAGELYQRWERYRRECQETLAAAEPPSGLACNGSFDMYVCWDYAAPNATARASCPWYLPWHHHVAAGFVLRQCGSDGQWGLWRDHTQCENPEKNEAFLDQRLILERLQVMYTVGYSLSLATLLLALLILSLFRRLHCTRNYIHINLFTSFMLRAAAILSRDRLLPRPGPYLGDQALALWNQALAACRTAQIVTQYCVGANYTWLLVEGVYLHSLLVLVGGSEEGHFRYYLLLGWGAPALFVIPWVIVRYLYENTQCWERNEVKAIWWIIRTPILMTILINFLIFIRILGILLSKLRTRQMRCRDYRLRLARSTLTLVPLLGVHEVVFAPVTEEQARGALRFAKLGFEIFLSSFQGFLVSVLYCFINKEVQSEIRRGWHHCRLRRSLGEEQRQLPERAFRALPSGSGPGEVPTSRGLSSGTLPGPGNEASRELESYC

B1: Y-Aib-EGT-aMeF(2F)-TSD-4Pal-SI-aMeL-LD-Orn-K((2-[2-(2-Amino-ethoxy)-ethoxy]-acetyl)2-CO-(CH2)12-CO2H)AQ-Aib-EFIK((2-[2-(2-Amino-ethoxy)-ethoxy]-acetyl)2-CO-(CH2 … (peptide)
peptide: YXEGTXTSDXSIXLDXKAQXEFIKXLIEGGPSSGAPPPS
modifications: Aib2, αMeF(2F)6, 4Pal10, αMeL13, Orn16, Aib20, αMeY25; acylated K17, K24 (groups as in name); C-terminal amide
B2: Y-Aib-EGT-αMeF(2F)-TSD-4Pal-SI-αMeL-LD-Orn-K((2-[2-(2-Amino-ethoxy)-ethoxy]-acetyl)2-(γ-Glu)-CO-(CH2)10-CH3)AQ-Aib-K((2-[2-(2-Amino-ethoxy)-ethoxy]-acetyl)2-(γ- … (peptide)
peptide: B1 peptide with E21K, K24X
modifications: Aib2, αMeF(2F)6, 4Pal10, αMeL13, Orn16, Aib20, D-Glu24, αMeY25; acylated K17, K21 (groups as in name); C-terminal amide
B3: Y-Aib-EGT-αMeF(2F)-TSD-4Pal-SI-αMeL-LD-Orn-K((2-[2-(2-Amino-ethoxy)-ethoxy]-acetyl)-(γ-Glu)-CO-(CH2)12-CO2H)AQ-Aib-EFIK((2-[2-(2-Amino-ethoxy)-ethoxy]-acetyl)-( … (peptide)
peptide: B1 peptide
modifications: Aib2, αMeF(2F)6, 4Pal10, αMeL13, Orn16, Aib20, αMeY25; acylated K17, K24 (groups as in name); C-terminal amide
B4: Y-Aib-EGT-αMeF(2F)-TSD-4Pal-SI-αMeL-LD-Orn-K((2-[2-(2-Amino-ethoxy)-ethoxy]-acetyl)-(εK)-(γ-Glu)-CO-(CH2)12-CO2H)AQ-Aib-EFI-(D-Glu)-αMeY-LIEGGK((2-[2-(2-Amino-e … (peptide)
peptide: B1 peptide with K24X, P31K
modifications: Aib2, αMeF(2F)6, 4Pal10, αMeL13, Orn16, K17(Z1), Aib20, D-Glu24, αMeY25, K31(Z1), C-term NH2; Z1=AEEA-(εK)-(γ-Glu)-CO-(CH2)12-CO2H
B5: Y-Aib-EGT-αMeF(2F)-TSD-4Pal-SI-αMeL-LD-Orn-K((εK)-(εK)-(γ-Glu)-CO-(CH2)12-CO2H)AQ-Aib-EFI-(D-Glu)-αMeY-LIEGGK((εK)-(εK)-(γ-Glu)-CO-(CH2)12-CO2H)SSGAPPPS-NH2 (peptide)
peptide: B1 peptide with K24X, P31K
modifications: Aib2, αMeF(2F)6, 4Pal10, αMeL13, Orn16, K17(Z1), Aib20, D-Glu24, αMeY25, K31(Z1), C-term NH2; Z1=(εK)-(εK)-(γ-Glu)-CO-(CH2)12-CO2H
B6: Y-Aib-EGT-αMeF(2F)-TSD-4Pal-SI-αMeL-LD-Orn-K((γ-Glu)-(2-[2-(2-Amino-ethoxy)-ethoxy]-acetyl)-CO-(CH2)12-CO2H)AQ-Aib-EFI-(D-Glu)-αMeY-LIEGGK((γ-Glu)-(2-[2-(2-Amin … (peptide)
peptide: B1 peptide with K24X, P31K
modifications: Aib2, αMeF(2F)6, 4Pal10, αMeL13, Orn16, K17(Z1), Aib20, D-Glu24, αMeY25, K31(Z1), C-term NH2; Z1=(γ-Glu)-AEEA-CO-(CH2)12-CO2H
B7: Y-Aib-EGT-αMeF(2F)-TSD-4Pal-SI-αMeL-LD-Orn-K((2-[2-(2-Amino-ethoxy)-ethoxy]-acetyl)-(γ-Glu)-(4-(4-tert-butylphenyl)butanoyl))AQ-Aib-K((2-[2-(2-Amino-ethoxy)-eth … (peptide)
peptide: B1 peptide with E21K, K24X
modifications: Aib2, αMeF(2F)6, 4Pal10, αMeL13, Orn16, Aib20, D-Glu24, αMeY25; acylated K17, K21 (groups as in name); C-terminal amide
B8: Y-Aib-EGT-αMeF-TSD-4Pal-SI-αMeL-LD-Orn-K((2-[2-(2-Amino-ethoxy)-ethoxy]-acetyl)2-(γ-Glu)-CO-(CH2)12-CO2H)AQ-Aib-EFI-(D-Glu)-αMeY-LIEGGK((2-[2-(2-Amino-ethoxy)-e … (peptide)
peptide: B1 peptide with K24X, P31K
modifications: Aib2, αMeF6, 4Pal10, αMeL13, Orn16, Aib20, D-Glu24, αMeY25; acylated K17, K31 (groups as in name); C-terminal amide
B9: Y-Aib-EGT-αMeF(2F)-TSD-4Pal-SI-αMeL-LD-Orn-K((2-[2-(2-Amino-ethoxy)-ethoxy]-acetyl)-(y-Glu)-CO-(CH2)12-CO2H)AQ-Aib-K((2-[2-(2-Amino-ethoxy)-ethoxy]-acetyl)-(γ-G … (peptide)
peptide: B1 peptide with E21K, K24X
modifications: Aib2, αMeF(2F)6, 4Pal10, αMeL13, Orn16, Aib20, D-Glu24, αMeY25; acylated K17, K21 (groups as in name); C-terminal amide
B10: Y-Aib-EGT-αMeF(2F)-TSD-4Pal-SI-αMeL-LD-Orn-K((εK)-(γ-Glu)-(γ-Glu)-CO-(CH2)12-CO2H)AQ-Aib-EFI-(D-Glu)-αMeY-LIEGGK((εK)-(γ-Glu)-(γ-Glu)-CO-(CH2)12-CO2H)SSGAPPPS-N … (peptide)
peptide: B1 peptide with K24X, P31K
modifications: Aib2, αMeF(2F)6, 4Pal10, αMeL13, Orn16, K17(Z1), Aib20, D-Glu24, αMeY25, K31(Z1), C-term NH2; Z1=(εK)-(γ-Glu)-(γ-Glu)-CO-(CH2)12-CO2H

Tests used:
human glucagon receptor [1] = molecular target: human glucagon receptor (human, UniProt P47871 26-477); experiment: cell-based or functional assay
human GLP-1 receptor = molecular target: T2, human GLP-1 receptor (human, UniProt P43220 24-463); experiment: SPA competition vs [125I]-GLP-1, hGLP-1R membranes
T2 construct: whole, on cells; also called hGLP-1R; human glucagon-like peptide-1 receptor
Description: The binding buffer contains 25 mM HEPES, pH 7.4, 2.5 mM CaCl₂, 1 mM MgCl₂, 0.1% (w/v) bacitracin, 0.003% (w/v) TWEEN®-20, and Roche Complete™ Protease Inhibitors without EDTA.
(§1) Data are analyzed using four-parameter (curve maximum, curve minimum, IC₅₀, Hill slope) nonlinear regression routines (Genedata Screener, version 12.0.4, Genedata AG, Basal, Switzerland). […] Values for Kᵢ are reported as the geometric mean, with error expressed as the standard error of the mean (SEM) and n is equal to the number of independent replicates (determined in assays performed on different days). Geometric Means are calculated as follows: […]

human glucagon receptor [2] = molecular target: T3, human glucagon receptor (human, UniProt P47871 26-477); experiment: SPA competition vs [125I]-Gcg, hGcgR membranes
T3 construct: whole, on cells; also called hGCGR; hGcgR
Description: The binding buffer contains 25 mM 4-(2-hydroxyethyl)-1-piperazineethanesulfonic acid (HEPES), pH 7.4, 2.5 mM CaCl₂, 1 mM MgCh, 0.1% (w/v) bacitracin (Research Products), 0.003% (w/v) Polyoxyethylenesorbitan monolaurate (TWEEN®-20), and Roche Complete™ Protease Inhibitors without EDTA. […] Plates are sealed and mixed on a plate shaker (setting 6) for 1 minute and read with a PerkinElmer Trilux MicroBeta® scintillation counter after 12 hours of incubation/settling time at room temperature.
Data are analyzed using four-parameter (curve maximum, curve minimum, IC₅₀, Hill slope) nonlinear regression routines (Genedata Screener, version 12.0.4, Genedata AG, Basal, Switzerland). […] Values for Kᵢ are reported as the geometric mean, with error expressed as the standard error of the mean (SEM) and n is equal to the number of independent replicates (determined in assays performed on different days).
T3 sequence (P47871 26-477): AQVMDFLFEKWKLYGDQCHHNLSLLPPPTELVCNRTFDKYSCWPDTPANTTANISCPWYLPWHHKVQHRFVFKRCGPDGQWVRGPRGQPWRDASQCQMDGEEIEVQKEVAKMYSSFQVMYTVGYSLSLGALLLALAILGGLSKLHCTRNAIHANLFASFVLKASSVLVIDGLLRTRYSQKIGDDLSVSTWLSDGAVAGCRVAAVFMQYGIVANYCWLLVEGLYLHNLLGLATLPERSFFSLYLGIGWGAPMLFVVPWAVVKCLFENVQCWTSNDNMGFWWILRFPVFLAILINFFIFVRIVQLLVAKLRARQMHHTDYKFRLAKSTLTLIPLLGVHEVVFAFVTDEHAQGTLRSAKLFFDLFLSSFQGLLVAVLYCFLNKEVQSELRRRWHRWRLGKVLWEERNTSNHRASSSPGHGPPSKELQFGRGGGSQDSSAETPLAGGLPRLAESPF

human GIP receptor = molecular target: T1, human GIP receptor; experiment: SPA competition vs [125I]-GIP, hGIPR membranes
Description: The binding buffer contains 25 mM HEPES, pH 7.4, 2.5 mM CaCl₂, 1 mM MgCl₂, 0.1% (w/v) bacitracin, 0.003% (w/v) TWEEN®-20, and Roche Complete™ Protease Inhibitors without EDTA. […] Plates are sealed and mixed on a plate shaker (setting 6) for 1 minute and read with a PerkinElmer Trilux MicroBeta® scintillation counter after 2.5 to 12 hours of incubation/settling time at room temperature.
as §1

Binder | cAMP EC50 (1.0% HSA) (human glucagon receptor [1]) [nM] | Ki (human GLP-1 receptor) [nM] | Ki (human glucagon receptor [2]) [nM] | Ki (human GIP receptor) [nM]
B1 | > 9950 | – | – | –
B2 | > 9950 | – | – | –
B3 | > 9950 | – | – | –
B4 | – | 1.38 | 868 | 0.077
B5 | – | 1.6 | 223 | 0.163
B6 | – | 2.02 | 458 | 0.0759
B7 | > 9950 | – | – | –
B8 | > 9950 | – | – | –
B9 | > 9950 | – | – | –
B10 | – | 1.69 | 412 | 0.234
